One molecule from patent publication WO2020165374A1 (dated 2020) can be followed below.

Test [1] addresses T1, recombinant human PD-1 (Sino Biologicals, reference 10377-H08H) (human, UniProt Q15116 25-167).
T1 construct: Bought protein; also called recombinant hPDl; Human recombinant PD-1
As to the kind of experiment: ELISA, recombinant hPD1 immobilized, anti-human IgG peroxidase detection. For orientation: ELISA stands for enzyme-linked immunosorbent assay.

In test [2] the target is T2, human recombinant IL-15 (SinoBiological ref#10360-H07E) (human, UniProt P40933 49-162).
T2 construct: also called Human IL-15; IL-15 cytokine
In words: ELISA, human IL-15 immobilized, anti-human IgG peroxidase detection.

T1 sequence (Q15116 25-167 limits assumed): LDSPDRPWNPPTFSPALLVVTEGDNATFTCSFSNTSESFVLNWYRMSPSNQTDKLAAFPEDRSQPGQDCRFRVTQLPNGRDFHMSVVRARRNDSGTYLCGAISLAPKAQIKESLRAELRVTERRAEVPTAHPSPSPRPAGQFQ
T2 sequence (P40933 49-162 limits assumed, stated change not applied): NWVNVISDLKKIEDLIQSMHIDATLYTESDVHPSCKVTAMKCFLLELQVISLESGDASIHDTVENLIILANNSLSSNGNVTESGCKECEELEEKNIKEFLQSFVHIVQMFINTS

B1: anti-PD-1 antibody (antibody, human IgG4 S228P, kappa, V domains shown)
VH: QIQLVQSGSELKKPGASVKVSCKASGYTFTHYAMNWVRQAPGQGLEWMGWINTNTGEPTYAQGFTGRFVFSLDTSVSTAYLQISSLKAEDTAVYYCAREREPGMDNWGQGTLVTVSS
VL: DVVMTQSPLSLPVTLGQPASISCRSSQSLVHANTNTYLEWYQQRPGQSPRLLIYKVSNRFSGVPDRFSGSGSGTDFTLKISRVEAEDVGVYYCFQGTHVPNTFGQGTKLEIKR
notes: also called Anti-PDl; anti-PD-1 alone
As to B1, the binding result is listed as “binds” in test [1] and “no binding” in test [2].
